# In patent US20110020346A1:
# How the values were obtained:
# mouse VEGF-A165 (mouse) = mouse VEGF-A165 (mouse) (UniProt Q00731); assay: ELISA with purified Fab (direct on coated antigen or solution binding), 25 C
# [1] = molecular target: T1, murine VEGF (mVEGF) (mouse) (UniProt Q00731); assay: method not stated, 25 C, unpublished results
# T1 sequence (looked up): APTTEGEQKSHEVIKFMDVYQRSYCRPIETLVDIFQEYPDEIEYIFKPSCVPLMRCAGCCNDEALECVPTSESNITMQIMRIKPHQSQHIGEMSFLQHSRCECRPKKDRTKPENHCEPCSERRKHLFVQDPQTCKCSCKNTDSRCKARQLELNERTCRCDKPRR
# Sequence of Y0317 Fab (VH): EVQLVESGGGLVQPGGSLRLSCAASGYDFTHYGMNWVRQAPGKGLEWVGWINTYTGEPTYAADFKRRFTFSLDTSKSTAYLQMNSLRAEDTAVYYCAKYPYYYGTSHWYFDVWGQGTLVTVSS
# Sequence of Y0317 Fab (VL): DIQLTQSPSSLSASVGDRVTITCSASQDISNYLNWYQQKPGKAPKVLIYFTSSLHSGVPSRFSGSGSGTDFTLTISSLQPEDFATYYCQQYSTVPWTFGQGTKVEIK
value printed without a name (ELISA) (mouse VEGF-A165 (mouse)) [nM],Kd [1] [nM],Substance
0.6,–,G6 Fab
–,300,Y0317 Fab
